# In patent US20250213647A1, “CHEMOKINE RECEPTORS AND ALPHA1 ADRENERGIC RECEPTORS/VASOPRESSIN RECEPTORS 1A HETEROMERS AS DRUG TARGETS FOR DISEASE” (UNIVERSITY OF SOUTH FLORIDA, priority 2022, published 2025):
# Read-outs that look alike come from different tables or passages of the source.
# B1: CCL1: Chemokine (C-C motif) ligand 1, selective agonist of CCR8 (protein, UniProt P22362 24-96, looked up)
# C-C motif chemokine 1: KSMQVPFSRCCFSFAEQEIPLRAILCYRNTSSICSNEGLIFKLKRGKEACALDTVGWVQRHRKMLRHCPSKRK
# Columns and labels:
# CCR2 [1] = molecular target: T1, CCR2 (Homo sapiens, UniProt P41597); assay: BRET assay for β-arrestin recruitment, HEK293T with CCR2-Rluc and β-arrestin-YFP without α1b-AR; type: cell-based
# Procedure: (§1) β-arrestin recruitment was measured by BRET, as described (Armando, 2014; Berchiche, 2011). In brief, HEK293T cells were plated in a 6-well plate and transfected with 0.1 μg of CCR2-RluII and 1.9 μg β-arrestin-YFP with 0.1 μg pcDNA3.1 or α1b-AR. One day after transfection, cells were re-plated into 96-well poly-L lysine precoated plates. After overnight incubation, cells were replaced with 0.1% glucose/PBS. Coelenterazine H in a final concentration of 5 μM was added to cells and incubated at room temperature for 3 min. […] The BRET changes were calculated by subtracting the BRET signal of untreated cells.
# CCR2 [2] = molecular target: T1, CCR2; assay: Chemotaxis assay, THP-1 cells toward CCL2 (CCR2-mediated); type: cell-based; design: host or cells: THP-1; conditions: CCL2 10 nM, FIG. 23E
# Procedure: Cell migration was measured employing the Neuroprobe (Gaithersburg, MD, USA) ChemoTx® Disposable Chemotaxis System. A 96-well Boyden-chamber (30 μL/well, 8 μm pores, 1×10^5 pores/cm^2 pore density) was selected for all chemotaxis experiments. Bottom wells of the Boyden-chamber were loaded with 30 μL of test substances at various concentrations. Top wells of the membrane were loaded with 25 μL of THP-1 cells, THP-1_ADRA1B^KO, wild type THP-1 cells after clonal expansion (=control for THP-1_ADRA1B^KO) or freshly isolated monocytes (200 cells/μL). THP-1 cells were suspended in depleted RPMI1640 (0.5% HyClone™ fetal bovine serum, Sigma); Freshly isolated monocytes were suspended in RPMI1640 (0.5% human platelet poor plasma, Sigma). After 3 hours, transmigrated cells were counted utilizing the Cytation 1 plate reader (BioTek) by direct imaging in high contrast bright field (4×) and post-imaging particle analyses with Gen5 (v3.05) Imaging & Microscopy Software (BioTek). The chemotactic index (CI) was calculated as the ratio of cells that transmigrated in the presence versus the absence of the test solutions.
# CCR2 [3] = molecular target: T1, CCR2; assay: Gαi activation assay (TRUPATH BRET), HEK293T cells transfected with CCR2 plus pcDNA3 (CCR2 alone); type: cell-based
# Procedure: (§2) HEK293T cells were plated in a 6-well plate and transfected with 0.2 μg each of Gαi1-Rluc8, Gβ3 and Gγ9-GFP2 (Trupath) together with 0.2 μg of mouse or human CCR2 with either pcDNA3.1 or α1b-AR. One day after transfection, cells were trypsinized and replated to 96-well poly-L lysine precoated plates. After overnight incubation, cells were replaced with 0.1% glucose/PBS. Prolume Purple (NanoLight Tech.) or coelenterazine 400a in a final concentration of 5 μM were added in experiments with human or mouse CCR2, respectively, and incubated at room temperature for 3 min. Ligands at various concentrations were added to cells and incubated at room temperature for 5 min before luminescence was measured at 410 nm and 515 nm. […] The BRET changes were calculated by subtracting the BRET signal of untreated cells.
# [4] = system: THP-1 cells (CCR2-mediated Gαi signaling); assay: Cyclic AMP measurement in forskolin-stimulated THP-1 cells; type: cell-based, human; conditions: for % inhibition of cAMP production by CCL2: 100 nM CCL2, FIG. 2F
# Procedure: (§3) Cyclic AMP amounts were measured using the cAMP complete enzyme immunoassay kit, acetylated format (Enzo Life Sciences). 4×10^5 cells were incubated with forskolin/isobutylmethylxanthine (10 μM/0.5 mM final concentrations) in 0.1% BSA/10 mM Hepes-buffered RPMI and treated with CCL2 in the presence or absence of 1 μM PE, 1 μM PT or 100 nM NE at 37° C. for 15 min. The cells were lysed by incubating with 0.1 M HCl at room temperature for 20 min. The cAMP amounts in the lysate supernatant were measured following the manufacturer's instructions.
# CXCR4 = conditions: previous observations (Gao, 2018); cited from earlier work
# α1b-AR:CCR2 heteromer = molecular target: T2, α1b-AR:CCR2 heteromer (Homo sapiens, UniProt P35368+P41597); assay: Gαi activation assay (TRUPATH BRET), HEK293T cells transfected with CCR2 plus α1b-AR; type: cell-based
# T2 construct: expressed in transfected cells; host or cells: HEK293T
# Procedure: as §2
# mouse CCR2 = molecular target: T3, mouse CCR2 (Mus musculus, UniProt P51683); assay: Gαi activation assay (TRUPATH BRET), HEK293T cells transfected with mouse CCR2; type: cell-based; conditions: FIG. 9A
# T3 construct: expressed in transfected cells; host or cells: HEK293T
# Procedure: as §2
# THP-1_ADRA1B^KO cells = assay: Cyclic AMP measurement in forskolin-stimulated THP-1_ADRA1B^KO cells; type: cell-based, human; conditions: FIG. 2B
# Procedure: as §3
# CCR2 [5] = molecular target: T1, CCR2; conditions: higher for CCR2; cited from earlier work
# CCR2 [6] = molecular target: T1, CCR2; assay: Radioligand competition binding assay, [125I]-CCL2, crude membrane preparations of THP-1 cells; design: host or cells: THP-1; conditions: THP-1 cells pretreated with vehicle; mean±SE, n=3; read-out: IC50 of CCL2 to displace [125I]-CCL2
# Procedure: Cells were then centrifuged at 30,000× g (20 min, 4° C.), the supernatant was discarded, and pelleted cell fragments were snap-frozen in liquid nitrogen. The cell pellets were resuspended in 50 mM HEPES, 5 mM MgCl2, 1 mM CaCl2, 0.1% w/v BSA, pH 7.2, and then incubated with 50 pM [^125I]-CCL2, 1× Xpert Protease Inhibitor Cocktail (GenDEPOT), and varying concentrations of CCL2 for 1.5 h at 25° C. Bound [^125I]-CCL2 was collected via vacuum filtration using buffer containing 10 mM HEPES (pH 7.4) and 0.5 M NaCl at 4° C., and a cell harvester (Brandel) equipped with glass fiber filters. Radioactivity was measured in a gamma counter at 70% efficiency.
# CCR2:α1b-AR heteromers [7] = molecular target: T4, CCR2:α1b-AR heteromers (Homo sapiens, UniProt P35368+P41597); assay: BRET assay for β-arrestin recruitment, HEK293T co-expressing CCR2-Rluc, β-arrestin-YFP and α1b-AR; type: cell-based; design: expressed in transfected cells; conditions: CCL2 plus vehicle; FIG. 5D
# Procedure: as §1
# CCR2:α1b-AR heteromers [8] = molecular target: T4, CCR2:α1b-AR heteromers; assay: PRESTO-Tango β-arrestin recruitment assay, HTLA cells with CCR2-Tango plus α1b-AR; type: cell-based; design: Tango module of the TANGO vector (C); expressed in transfected cells; host or cells: HTLA
# Procedure: The assays were performed as described previously (Albee, 2017; Gao, 2022; Albee, 2018; Eby, 2017; Cheng, 2017). HTLA cells were seeded in a 6-well plate and transfected with 750 ng FLAG-CCR2-Tango together with 750 ng pcDNA3.1 or HA-α1b-AR using TransIT-2020 Transfection Reagent. The next day, cells (75,000 cells/well) were plated onto poly-L-Lysine pre-coated 96-well plates and allowed to attach to the plate surface for at least 4 hours prior to treatment. Cells were treated with receptor ligands at the concentrations indicated in the figure legends for 2 h and then replaced with fresh full medium and incubated overnight at 37° C., 5% CO2 in a humidified environment. The following morning, medium was replaced with a 100 μL 1:10 mixture of Bright-Glo (Promega) and PBS. Plates were then incubated at room temperature for 10 min before measuring luminescence on a Biotek Synergy II plate reader. Relative luminescence units (RLU) are expressed as fold changes of RLU vs unstimulated cells.
# T4 sequence (P41597 whole entry): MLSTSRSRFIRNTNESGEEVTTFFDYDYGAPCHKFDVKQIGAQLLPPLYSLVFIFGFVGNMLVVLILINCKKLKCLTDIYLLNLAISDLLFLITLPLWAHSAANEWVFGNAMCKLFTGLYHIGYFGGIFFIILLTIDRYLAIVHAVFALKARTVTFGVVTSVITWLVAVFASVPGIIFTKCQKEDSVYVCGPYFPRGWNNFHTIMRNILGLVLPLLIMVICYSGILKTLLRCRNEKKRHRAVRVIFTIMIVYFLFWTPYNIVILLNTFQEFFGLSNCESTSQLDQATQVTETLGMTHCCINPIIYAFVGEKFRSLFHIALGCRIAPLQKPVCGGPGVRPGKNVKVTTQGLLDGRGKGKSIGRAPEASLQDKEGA
# T4 sequence (P35368 whole entry): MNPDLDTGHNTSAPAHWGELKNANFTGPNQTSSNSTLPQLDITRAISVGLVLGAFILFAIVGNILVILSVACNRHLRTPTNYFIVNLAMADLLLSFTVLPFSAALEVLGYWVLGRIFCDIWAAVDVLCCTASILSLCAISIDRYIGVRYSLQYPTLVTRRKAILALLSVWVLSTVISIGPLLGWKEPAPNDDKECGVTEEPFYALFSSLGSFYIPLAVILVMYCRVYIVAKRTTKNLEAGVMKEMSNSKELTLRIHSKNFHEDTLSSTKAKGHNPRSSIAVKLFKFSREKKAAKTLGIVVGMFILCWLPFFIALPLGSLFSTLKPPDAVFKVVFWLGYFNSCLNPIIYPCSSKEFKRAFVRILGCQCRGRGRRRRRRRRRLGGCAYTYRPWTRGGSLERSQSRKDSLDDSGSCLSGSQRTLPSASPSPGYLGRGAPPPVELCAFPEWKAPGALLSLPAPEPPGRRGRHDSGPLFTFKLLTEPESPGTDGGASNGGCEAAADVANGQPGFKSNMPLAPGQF
# T1 sequence (P41597 whole entry): as the sequence (P41597 whole entry) above
# T2 sequence (P41597 whole entry): as above
# T2 sequence (P35368 whole entry): as the sequence (P35368 whole entry) above
# T3 sequence (P51683 whole entry): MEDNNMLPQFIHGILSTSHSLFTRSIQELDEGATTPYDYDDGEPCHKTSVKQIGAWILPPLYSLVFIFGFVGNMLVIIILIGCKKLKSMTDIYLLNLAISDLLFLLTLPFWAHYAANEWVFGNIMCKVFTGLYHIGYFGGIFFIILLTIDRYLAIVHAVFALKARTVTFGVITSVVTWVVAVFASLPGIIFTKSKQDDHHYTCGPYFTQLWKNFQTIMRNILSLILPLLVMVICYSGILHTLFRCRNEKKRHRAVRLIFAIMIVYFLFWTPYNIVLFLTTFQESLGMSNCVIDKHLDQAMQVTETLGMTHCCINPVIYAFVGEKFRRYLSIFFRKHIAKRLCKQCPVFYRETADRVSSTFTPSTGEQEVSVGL
molecule,measurement,setting,value
COc1ccc(C2(O)CCC(N3CC[C@@H](NC(=O)CNC(=O)c4cccc(C(F)(F)F)c4)C3)CC2)cn1 (some centres unmarked) [INCB3284],effect on the CCL2-induced BRET signal (CCR2-Rluc / β-arrestin-YFP),"CCR2 [1]; 10 μM PE, PT or 100 nM INCB3284, FIG. 5C",could be inhibited
same,inhibition of CCL2-induced chemotaxis,CCR2 [2],more than 95%
NC[C@H](O)c1ccc(O)c(O)c1 [norepinephrine],effect on CCL2-induced Gαi1 activation,"CCR2 [3]; cells transfected with CCR2 alone, 10 μM PE or PT, FIG. 4B, 4E",did not affect
same,effect on the effects of CCL2 on cAMP production,"[4]; forskolin-stimulated THP-1 cells, 1 μM PE, 1 μM PT or 100 nM NE, 15 min at 37° C., FIG. 4G, 4H",inhibited the effects of CCL2 on cAMP production
COc1cc2nc(N3CCN(C(=O)c4ccco4)CC3)nc(N)c2cc1OC [prazosin],CXCR4-mediated chemotaxis of primary human vascular smooth muscle cells,CXCR4,inhibit
"CCL2: chemokine (C-C motif) ligand 2, cognate agonist of CCR2, CCR3 and CCR5","bottom plateau (BRET change), Gαi1 activation by CCL2","CCR2 [3]; cells transfected with CCR2 alone, FIG. 1B",−0.03±0.001
same,EC50,"CCR2 [3]; cells transfected with CCR2 alone, FIG. 1B, read-out: EC50 of CCL2, Gαi1 activation",3.31 nM
same,"bottom plateau, Gαi1 activation by human CCL2","CCR2 [3]; human CCR2, FIG. 9A",−0.058±0.004
same,EC50,"CCR2 [3]; human CCR2, FIG. 9A, read-out: EC50 of human CCL2, Gαi1 activation",1.4 ± 0.8 nM
same,"bottom plateau, CCL2-induced Gαi activation","α1b-AR:CCR2 heteromer; CCL2 plus vehicle, FIG. 4C",−0.04±0.002
same,EC50,"α1b-AR:CCR2 heteromer; CCL2 plus vehicle, FIG. 4C, read-out: EC50 of CCL2 to induce Gαi activation",0.9 ± 0.25 nM
same,"bottom plateau, CCL2-induced Gαi activation","α1b-AR:CCR2 heteromer; CCL2 plus vehicle, FIG. 4D",−0.04±0.002
same,EC50,"α1b-AR:CCR2 heteromer; CCL2 plus vehicle, FIG. 4D, read-out: EC50 of CCL2 to induce Gαi activation",1.3 ± 0.4 nM
same,"bottom plateau, CCL2-induced Gαi activation","α1b-AR:CCR2 heteromer; CCL2 plus vehicle, FIG. 4F",−0.042±0.002
same,EC50,"α1b-AR:CCR2 heteromer; CCL2 plus vehicle, FIG. 4F, read-out: EC50 of CCL2 to induce Gαi activation",1.5 ± 0.5 nM
same,"bottom plateau (BRET change), Gαi1 activation by CCL2","α1b-AR:CCR2 heteromer; cells transfected with CCR2 plus α1b-AR, FIG. 1B",−0.037±0.001
same,EC50,"α1b-AR:CCR2 heteromer; cells transfected with CCR2 plus α1b-AR, FIG. 1B, read-out: EC50 of CCL2, Gαi1 activation",0.94 ± 0.2 nM
same,"bottom plateau, Gαi1 activation by human CCL2",mouse CCR2,−0.073±0.009
same,EC50,"mouse CCR2; read-out: EC50 of human CCL2, Gαi1 activation",3.5 ± 3.1 nM
same,% inhibition of cAMP production by CCL2,[4]; THP-1 cells incubated with non-targeting siRNA,66±5%
same,% inhibition of cAMP production by CCL2,[4]; THP-1 cells incubated with α1B-AR siRNA,46±4%
same,reduction of cAMP levels by CCL2,"[4]; forskolin-stimulated THP-1 cells, 100 nM CCL2, 15 min at 37° C., FIG. 2B",56±6%
same,inhibition of cAMP production by CCL2,"THP-1_ADRA1B^KO cells; forskolin-stimulated THP-1_ADRA1B^KO cells, 100 nM CCL2, 15 min at 37° C.",30±4%
same,EC50,"CCR2 [1]; FIG. 5C, read-out: EC50 of CCL2, BRET between CCR2-Rluc and β-arrestin-YFP",3.5 ± 0.9 nM
same,binding affinity of CCL2 for CCR2 relative to CCR3 and CCR5,CCR2 [5],approximately 100 fold
same,IC50,CCR2 [6],0.167 ± 0.023 nM
same,EC50,CCR2:α1b-AR heteromers [7],3.7 ± 0.5 nM
same,"Top plateau, β-arrestin recruitment BRET",CCR2:α1b-AR heteromers [7],0.06±0.001
same,EC50,"CCR2:α1b-AR heteromers [8]; CCL2 alone, FIG. 5B",1.6 ± 1.3 nM
same,efficacy to induce β-arrestin recruitment to CCR2,CCR2:α1b-AR heteromers [8]; agonist alone,43±5 fold change RLU
same,efficacy of CCL2 relative to phenylephrine to recruit β-arrestin to CCR2,CCR2:α1b-AR heteromers [8]; higher,18 fold
B1,"inhibition of forskolin-stimulated cAMP production by CCL1, THP1 vs THP-1_ADRA1B^KO cells","THP-1_ADRA1B^KO cells; 100 nM CCL1, 15 min at 37° C.",indistinguishable
